According to US20200354451A1:

Biological target: human CD19 (human) (UniProt P15391)
Test: cell-based or functional assay

UniProt P15391, sequence (P15391 20-556): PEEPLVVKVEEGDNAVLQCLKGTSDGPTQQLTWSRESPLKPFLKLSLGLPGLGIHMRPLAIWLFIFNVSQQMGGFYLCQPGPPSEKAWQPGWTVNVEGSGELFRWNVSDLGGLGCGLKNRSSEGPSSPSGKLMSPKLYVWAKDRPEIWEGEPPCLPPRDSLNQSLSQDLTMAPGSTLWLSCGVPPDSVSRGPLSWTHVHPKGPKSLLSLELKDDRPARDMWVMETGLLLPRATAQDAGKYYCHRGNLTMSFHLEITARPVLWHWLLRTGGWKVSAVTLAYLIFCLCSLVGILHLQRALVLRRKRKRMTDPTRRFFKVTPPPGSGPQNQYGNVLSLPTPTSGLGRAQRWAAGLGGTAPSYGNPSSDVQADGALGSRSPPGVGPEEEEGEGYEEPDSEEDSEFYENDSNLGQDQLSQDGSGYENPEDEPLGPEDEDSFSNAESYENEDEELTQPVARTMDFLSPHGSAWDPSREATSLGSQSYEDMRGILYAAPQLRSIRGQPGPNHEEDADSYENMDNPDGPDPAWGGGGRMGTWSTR

IFN-gamma secretion (ELISA), Hela-CD19 target cells: 8870 pg/mL
Substance: CD19 CAR (mouse FMC63 scFv, no TF)
